The target in test [1] is c-Myc–HMPV P, in vitro translated, unlabelled (human metapneumovirus strain TN/96-12). Kind of test: co-IP.
Test [2] has as its target c-Myc–HMPV N, in vitro translated, unlabelled (human metapneumovirus strain TN/96-12). Briefly: co-IP.

This passage reports percent co-immunoprecipitated results from article PMC2876975.

Some results are limits rather than exact numbers.

On to “Radiolabelled native HMPV N, in vitro translated (natural protein)”, for which the percent co-immunoprecipitated in test [1] was less than 1%.
As for “Radiolabelled native HMPV P, in vitro translated (natural protein)”, in test [2], the percent co-immunoprecipitated was less than 1%.
